Measured values as given in article PMC3737541, “Structure-function analysis of the EF-hand protein centrin-2 for its intracellular localization and nucleotide excision repair” (Nucleic Acids Research, 2013).
Substitutions are numbered along the chain they refer to. Each block holds one binder with its values, some of them ahead of it.

Columns and labels:
[1] = target: T1, FLAG-XPA (human, UniProt P23025 1-273); assay: pull-down; FLAG-XPA (0.5 µg) immobilised on anti-DDDDK-tag magnetic beads; centrin-2 in buffer B, on ice 1 h; elution with FLAG peptide; immunoblot; no XPC/RAD23B; details: both partners purified
T1 construct: XPA protein, human; also called purified recombinant XPA

[2] = target: T2, FLAG-XPC/RAD23B-His complex (human, UniProt Q01831 1-940; P54727 1-409); assay: cell-based or functional assay
T2 sequence (looked up) 1: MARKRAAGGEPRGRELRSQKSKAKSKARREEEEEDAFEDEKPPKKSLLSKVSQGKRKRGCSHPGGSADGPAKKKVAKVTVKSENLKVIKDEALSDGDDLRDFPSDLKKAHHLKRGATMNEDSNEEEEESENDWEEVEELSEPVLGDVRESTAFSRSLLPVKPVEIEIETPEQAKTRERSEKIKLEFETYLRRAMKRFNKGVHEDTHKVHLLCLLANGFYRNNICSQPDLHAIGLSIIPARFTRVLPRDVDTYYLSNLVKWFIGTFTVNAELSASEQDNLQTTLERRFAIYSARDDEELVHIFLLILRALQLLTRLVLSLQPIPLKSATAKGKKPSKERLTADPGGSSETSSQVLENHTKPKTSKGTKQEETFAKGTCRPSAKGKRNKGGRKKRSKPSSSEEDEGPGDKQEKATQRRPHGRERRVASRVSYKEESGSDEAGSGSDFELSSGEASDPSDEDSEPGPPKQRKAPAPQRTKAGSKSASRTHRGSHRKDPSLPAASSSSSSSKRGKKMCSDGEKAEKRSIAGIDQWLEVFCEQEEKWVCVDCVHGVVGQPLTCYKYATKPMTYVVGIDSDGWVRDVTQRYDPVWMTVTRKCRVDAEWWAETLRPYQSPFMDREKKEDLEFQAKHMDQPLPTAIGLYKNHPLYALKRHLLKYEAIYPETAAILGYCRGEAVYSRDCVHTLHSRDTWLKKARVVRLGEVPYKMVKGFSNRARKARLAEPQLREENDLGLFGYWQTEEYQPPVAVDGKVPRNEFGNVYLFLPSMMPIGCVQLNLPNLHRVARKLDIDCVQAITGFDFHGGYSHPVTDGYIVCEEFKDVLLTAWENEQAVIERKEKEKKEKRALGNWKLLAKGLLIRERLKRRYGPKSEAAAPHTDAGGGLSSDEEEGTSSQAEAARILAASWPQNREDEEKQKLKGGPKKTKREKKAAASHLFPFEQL
T2 sequence (looked up) 2: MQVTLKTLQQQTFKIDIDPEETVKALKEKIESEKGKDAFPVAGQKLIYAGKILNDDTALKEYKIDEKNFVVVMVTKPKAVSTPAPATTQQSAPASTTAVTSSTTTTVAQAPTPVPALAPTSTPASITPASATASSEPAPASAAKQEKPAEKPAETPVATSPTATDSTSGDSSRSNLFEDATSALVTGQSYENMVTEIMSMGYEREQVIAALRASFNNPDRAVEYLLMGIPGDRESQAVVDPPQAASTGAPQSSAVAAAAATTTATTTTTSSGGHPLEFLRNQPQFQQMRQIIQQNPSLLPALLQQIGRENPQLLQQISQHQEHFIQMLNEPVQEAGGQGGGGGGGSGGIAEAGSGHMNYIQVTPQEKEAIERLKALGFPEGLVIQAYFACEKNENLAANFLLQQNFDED

[3] = target: T2, FLAG-XPC/RAD23B-His complex; assay: pull-down; purified GST-centrin-2 (WT, N or C) incubated with FLAG-XPC/RAD23B-His, pulled down with anti-FLAG antibody beads; immunoblot; details: both partners purified
[4] = target: T2, FLAG-XPC/RAD23B-His complex; assay: pull-down; FLAG-XPC/RAD23B-His immobilised on anti-FLAG magnetic beads, incubated with centrin-2 (WT or C domain, GST removed), extensive washing, elution with FLAG peptide; reconstituted heterotrimers; details: both partners purified

T1 sequence (P23025 whole entry): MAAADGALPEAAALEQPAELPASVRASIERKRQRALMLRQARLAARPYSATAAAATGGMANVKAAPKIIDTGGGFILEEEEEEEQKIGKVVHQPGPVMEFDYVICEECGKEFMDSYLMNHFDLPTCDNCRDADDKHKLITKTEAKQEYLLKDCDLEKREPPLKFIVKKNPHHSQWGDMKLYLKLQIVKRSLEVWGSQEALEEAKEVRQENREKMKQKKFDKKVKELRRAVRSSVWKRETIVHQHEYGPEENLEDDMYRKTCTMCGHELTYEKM

binding result [3]: binds
B3: GST-centrin-2 C domain (domain or fragment, human, UniProt P41208 94-172, looked up)
chain: TQKMSEKDTKEEILKAFKLFDDDETGKISFKNLKRVAKELGENLTDEELQEMIDEADRDGDGEVSEQEFLRIMKKTSLY
notes: centrin-2, human, carboxyl-terminal (C) domain, residues 94-172; source: E. coli BL21 (DE3), purified (GSTrap FF, HiTrap Phenyl FF); not shown: GST, N-terminal, kept

binding result [4]: binds
B4: centrin-2 C domain, detached from the GST tag (domain or fragment, human, UniProt P41208 94-172, looked up)
chain: B3 chain
notes: centrin-2, human, carboxyl-terminal (C) domain, residues 94-172; also called the C domain alone; source: E. coli BL21 (DE3), purified (GSTrap FF, HiTrap Phenyl FF), GST removed with PreScission protease; not shown: GST, N-terminal, cleaved

Further lines, the binder ahead of its results:

B1: centrin-2 (WT), detached from the GST tag (natural protein, human, UniProt P41208 1-172, looked up)
chain: MASNFKKANMASSSQRKRMSPKPELTEEQKQEIREAFDLFDADGTGTIDVKELKVAMRALGFEPKKEEIKKMISEIDKEGTGKMNFGDFLTVMTQKMSEKDTKEEILKAFKLFDDDETGKISFKNLKRVAKELGENLTDEELQEMIDEADRDGDGEVSEQEFLRIMKKTSLY
notes: centrin-2, human, wild type; also called WT centrin-2; full-length protein; source: E. coli BL21 (DE3), purified (GSTrap FF, HiTrap Phenyl FF), GST removed with PreScission protease; not shown: GST, N-terminal, cleaved
binding result [1]: binds
EMSA: enhancement of the binding of XPC/RAD23B to a 180 bp DNA with a 6-4PP by centrin-2 (WT) [2]: ~2 fold

B2: centrin-2 M4 mutant, recombinant (natural protein, human, UniProt P41208 1-172, looked up)
chain: B1 chain with L112A, F113A, L133A, M145A
notes: centrin-2, human, point mutant M4 of the WT protein (intact N domain); also called M4 mutant of centrin-2; source: E. coli BL21 (DE3), purified (GSTrap FF, HiTrap Phenyl FF)
binding result [1]: binds
